US10883116B2, “Transduction buffer” (Koninklijke Nederlandse Akademie van Wetenschappen, priority 2013, dated 2021)
Entries after “also recorded” stand apart in the source; their conditions may differ.

Tests used:
KBM7 cells [1] = assay: CRE recombinase reporter in KBM7 cells, Cas9-adapted transduction buffer; type: cell-based, human; conditions: 1250 mOsmol/Kg, 250 mM GABA
Protocol: (C) Top panel. Schematic depiction of the CRE recombinase reporter. […] Untransduced cells express Red fluorescent protein. […] Bottom panel. KBM7 cells transduced with CRE protein with osmocytosis media at 1250 mOsmol/Kg with 250 mM GABA (compound #20) during 60 minutes. Upper panels represent fluorescent pictures in green and red channel. Bottom panels represent FACS plots showing in x axes green fluorescence and in y axes red fluorescence or frequency of events. Percentages of events are depicted in the corresponding area.
To further test the duration of the transduction with the modified transduction buffer, we performed a Cre recombinase protein transduction at 1250 mOsmol/Kg and 250 mM GABA at different time points and measured the percentage of cells with successful cre-mediated reporter activation as well as BrdU incorporation as a measure of cell proliferation and survival. Under these conditions, the optimal transduction time based on cell survival and Cre transduction was around 60 minutes. At those time points, one round of Cre protein transduction gave an 80% of GFP positive KBM7 cells. And two subsequent rounds of Cre protein transduction yielded 94% positive KBM7 (FIG. 19C). A second round of protein transduction didn't affect cell survival rate.

[2] = system: murine embryonic fibroblasts (MEFs); assay: β-Lactamase protein transduction assay (CCF2-AM), protocol 3/700
From the text: To further characterize the protein transduction process we analyzed the effect of time, osmolality, transduction compound concentration and protein concentration on the transduction process. To this end, we set up a β-Lactamase protein transduction assay and measured intracellular β-Lactamase activity using CCF2-AM, an intracellular fluorescent β-Lactamase substrate that changes emission wavelength when cleaved by the enzyme (FIG. 3A). […] While we used the immortalized COS7 cell line in our initial studies, we wanted to know if the compound-mediated protein transduction would also allow the transduction of protein into primary cells. We therefore transduced murine embryonic fibroblasts (MEFs) with β-Lactamase (1 μM final concentration), using NaCl-adjusted hypertonic media (700 mOsm/Kg) and 25 mM NDSB201. β-Lactamase activity was set at 1 at the start of the experiment and relative intracellular β-Lactamase activity was measured as a function of time (FIG. 3B, bars). As a control, β-Lactamase transduction was measured in isotonic media in the presence of 25 mM NSDB201 (FIG. 3B, open circles).
β-lactamase transduction was performed using the 3/700 protocol above in murine embryonic fibroblasts (MEFs). A black, clear-bottom 96 well-plate was coated with 0.15 mg/ml of Poly-D-Lysine for 1 h at room temperature. 12,000 MEFs cells were seeded per well in MEF media without antibiotics. Next day, cells were transduced using the transduction protocol 3/700 as describe above. […] Na- or Rb-salt was added to adjust the final tonicity to 700 mOsm/Kg. […] After 3 hrs., the transduction media was replaced by fresh MEF media for 30 min. Subsequently, cells were washed once with phenol-red-free DMEM. β-lactamase activity was measured using the CCF2-AM kit following the manufacturer's instructions. In brief, 120 μl of CCF2-AM loading media was added per well and cells were incubated for 1 h at room temperature. Cells were washed two times with DMEM phenol-red free and incubated for an additional 30-60 min. Fluorescence emission was measured at […] and 510 nm following manufacturer's instructions. All tests were done in triplicate.

KBM7 cells [3] = type: cell-based; conditions: human, 250 mM
Protocol: (B) BrdU incorporation rate was determined in KBM7 cells incubated with osmocytosis buffer with NDSB-201 or GABA at different time points. Untreated cells were considering as 100% of BrdU incorporation.
Next we optimized the transduction media to allow the transduction of recombinant Cas9. […] For this reason we developed a “Cas9-adapted transduction protocol” (the “fourth protocol”) with a final osmolality of 1250 mOsmol/Kg and a concentration of 250 mM of NDSB-201 (transduction compound #01) or other transduction compounds selected from the FIGS. 7A-7D. We expected that higher osmolalities and NDSBs will induce faster protein transduction but also could possibly increase the cellular toxicity. To characterize this new transduction conditions we measured BrdU incorporation upon high osmolarity (1250 mOsm/Kg) transduction at different short time points, in KBM7 cells.

[4] = system: GFP-expressing murine embryonic fibroblasts (MEFs); assay: Macropinocytosis mediated uptake of TMR-dextran and BSA, confocal microscopy; type: cell-based; conditions: 100 μM EIPA 30 min before and during transduction
Protocol: To assess if the transduction buffer would permit the simultaneous transduction of proteins and large molecules, we analyzed macropinocytosis mediated uptake of TMR-dextran (red) and fluorescently labeled BSA protein (cyan) by GFP-expressing murine embryonic fibroblasts (MEFs). In brief, MEFs expressing eGFP protein (green) were incubated with 5 μg/ml of high molecular weight TMR-Dextran (red) and 1 μg of BSA-Alexa-647 (far-red) in 1× transduction media (protocol 700/3) for 30 min. Subsequently, cells were washed twice in 1× transduction buffer. Finally, cells were maintained in 1× transduction buffer and immediately analyzed by confocal microscopy. Dextran and BSA uptake was inhibited by incubating cells with 100 μM Ethylisopropylamiloride (EIPA) 30 min before and during transduction procedure.

[5] = system: MEFs cells expressing GAL3-GFP protein; assay: GAL3-GFP macropinosome vesicle leakage reporter assay; conditions: 700/3 conditions
Protocol: Schematic representation of the GAL3-GFP reporter assay. Upon initiation of transduction, extracellularly applied protein is taken up into macropinosomes (grey vesicles). […] At the same time, the compromised macropinosome membrane now allows entry of cytosolic GAL3-GFP protein, which binds to—and accumulates at the intra-macropinosome carbohydrates resulting in a bright fluorescent signal (white vesicles). […] GAL3-GFP cells were incubated with transduction media at 700 mOsmol/Kg with or without the macropinocytosis inhibitor EIPA. Untreated cells were included as negative control.
For transduction to occur, proteins that have been taken by macropinocytosis have to be released into the cytosol. […] To test the efficacy of potential transduction compound candidates, we set up an assay to monitor macropinosome vesicle permeation. […] We set up a reporter system in which Galectin-3 protein is fused to GFP (GAL3-GFP). Cytosolic GAL3-GFP protein relocalises to the interior of permeabilized macropinosomes, whereby a multimer complex is formed with intense green fluorescent emission. MEFs cells expressing GAL3-GFP protein were transduced using the 700/3 conditions.

murine ESCs = assay: ESC proliferation by cell counting after CRE transduction; type: cell-based; conditions: with or without Tat-HA2 fusion peptide
From the text: Top & bottom graph. After 2 days, transduced (white circle) or untransduced (grey bars) cells were counted every day to make cell proliferation curves.
Untransduced cells were used as a control.

[6] = system: human induced pluripotent stem cells (iPSCs); assay: CRE recombinase dsRed-to-eGFP reporter, flow cytometry
murine neurospheres = assay: CRE reporter in murine neurospheres; type: cell-based; conditions: CRE protein transduction, protocol 12/500
From the text: (§1) A similar strategy of CRE-recombinase mediated red-to-green reporter shift as described above, was utilized to assess the transduction of murine and human neurons, glia and neural stem cells. FIG. 10A depicts a schematic representation of the assay. […] Since the fluorescent reporter construct was introduced into the iPSC-derived glial cells and neurons using lentiviral infection, cells likely incorporated multiple copies of this reporter.
Neurospheres were transferred to a 96 well plate with 80 μl of the neuronal stem cells media. Right after, 20 μl of CRE in 5× Transduction buffer was added to cell and mixed carefully.

[7] = system: human iPSC-derived glial cells and neurons; assay: CRE reporter in human iPSC-derived glial cells and neurons; type: cell-based; conditions: 5 μM CRE
From the text: as §1

[8] = system: murine embryonic stem cells (mESCs); assay: CRE recombinase Lox-Stop-Lox-eGFP reporter, flow cytometry
From the text: To explore protein transduction of murine embryonic stem cells in more detail, we used a transgenic mESC line in which a CRE-recombinase inducible reporter was stably integrated in the ColA1 locus^2. […] Next we tested whether protein transduction affected ESC proliferation. After two rounds of CRE-protein transduction, the doubly transduced cells in FIG. 8B were trypsinized, seeded onto MEFs feeders, and cell proliferation was monitored by cell counting. Untransduced cells were used as a control. […] Next we explored the expression of key pluripotency factors in the double transduced mESCs by qRTPCR. […] To test the pluripotency of the transduced mESCs, double-transduced GFP+ ESCs from the experiment in FIG. 8B were injected into host blastocyst embryos and transplanted into pseudopregnant foster mice.

Molecule: NCCCC(=O)O [Compound #20, gamma-aminobutyric acid]
- optimal transduction time based on cell survival and Cre transduction (KBM7 cells [1]): around 60 minutes
- β-lactamase transduction activity when combined with reference compound #01 (reference set at 100%) ([2]; equimolar with NDSB201 (#01), 12.5 mM each, total 25 mM, 3 hours, 700 mOsm/Kg): largely unchanged
- cell survival (BrdU incorporation) in KBM7 (KBM7 cells [3]): much better survival than NDSB-201

Molecule: CCN(c1nc(N)c(C(=O)N=C(N)N)nc1Cl)C(C)C [EIPA, 5-(N-ethyl N-isopropyl)-amiloride, reference compound]
- effect on Dextran and BSA transduction [4]: inhibited
- effect on protein transduction in the presence of FGF and PDGF ([2]; 700 mOsm/Kg, 25 mM NDSB201): completely blocked protein transduction
- effect of endocytic pathway inhibitor on protein transduction ([2]; 3 hours, 1 μM β-lactamase, 700 mOsm/Kg NaCl, 25 mM NDSB201): strongly inhibited; also recorded: completely inhibits protein transduction
- Gal3-GFP localisation to macropinocytic vesicles (vesicle leakage) [5]: did not relocalize to vesicles

B1: CRE protein: recombinant CRE recombinase protein (protein, UniProt P06956 1-343, looked up)
Recombinase cre: MSNLLTVHQNLPALPVDATSDEVRKNLMDMFRDRQAFSEHTWKMLLSVCRSWAAWCKLNNRKWFPAEPEDVRDYLLYLQARGLAVKTIQQHLGQLNMLHRRSGLPRPSDSNAVSLVMRRIRKENVDAGERAKQALAFERTDFDQVRSLMENSDRCQDIRNLAFLGIAYNTLLRIAEIARIRVKDISRTDGGRMLIHIGRTKTLVSTAGVEKALSLGVTKLVERWISVSGVADDPNNYLFCRVRKNGVAAPSATSQLSTRALEGIFEATHRLIYGAKDDSGQRYLAWSGHSARVGAARDMARAGVSIPEIMQAGGWTNVNIVMNYIRNLDSETGAMVRLLEDGD
- GFP positive KBM7 cells (KBM7 cells [1]; one round, around 60 minutes): 80%
- positive KBM7 (KBM7 cells [1]; two subsequent rounds): 94%
- ESC proliferation after two rounds of CRE protein transduction (murine ESCs): did not affect ESC proliferation
- cells shifted to eGFP expression ([6]; 5 μM CRE protein, 12 hours at 500 mOsm/Kg, single transduction): 64%
- eGFP cells ([6]; double CRE protein transduction, without Tat-HA2 fusion peptide): 78%
- eGFP reporter activation (murine neurospheres): efficient activation of the eGFP reporter
- eGFP reporter activation [7]: efficient activation of the eGFP reporter
- GFP+ ESCs ([8]; 5 μM CRE, two sequential rounds, 12 hrs each at 500 mOsm/Kg with glycerol and glycine): 79%
- GFP-positive mESCs ([8]; Okada method (hypertonic/hypotonic), 5 μM CRE-recombinase protein): 6%
